# Test results as given in patent US6573081.
# Legend:
# [1] = target: Porcine circovirus (PCV) grown in PS cell culture (porcine circovirus); assay: ELISA, PCV supernatant adsorbed to the plate at virus dilution 1:800
# [2] = target: Porcine circovirus (PCV) grown in PS cell culture (porcine circovirus); assay: ELISA, PCV supernatant adsorbed to the plate at virus dilution 1:3200
# [3] = target: Porcine circovirus (PCV) grown in PS cell culture (porcine circovirus); assay: ELISA, PCV supernatant adsorbed to the plate at virus dilution 1:6400
# [4] = target: Porcine circovirus (PCV) grown in PS cell culture (porcine circovirus); assay: ELISA, PCV supernatant adsorbed to the plate at virus dilution 1:200
# [5] = target: Porcine circovirus (PCV) grown in PS cell culture (porcine circovirus); assay: ELISA, PCV supernatant adsorbed to the plate at virus dilution 1:400
# [6] = target: Porcine circovirus (PCV) grown in PS cell culture (porcine circovirus); assay: ELISA, PCV supernatant adsorbed to the plate at virus dilution 1:1600
substance,measurement,setting,value
Human immunoglobulin concentrate (Beriglobin P),extinction,[1],1.17 extinction
same,extinction,[2],0.268 extinction
same,extinction,[3],0.381 extinction
same,extinction,[4],> 2 extinction
same,extinction,[5],1.98 extinction
same,extinction,[6],0.726 extinction
